This is an account of results in patent US20120040403A1 (NANYANG TECHNOLOGICAL UNIVERSITY, published 2012).

This data set deals with the molecule itself. In words: size-exclusion chromatography (Superdex 75). Here is the method:
Gel filtration was performed at 4° C. using the AKTA FPLC system equipped with a Superdex 75 HR 16/60 column (Amersham Biosciences). The buffer used for gel filtration is comprised of 50 mM Tris-Cl (pH 8.0), 300 mM NaCl, 5% Glycerol, 1 mM DTT. Fractions containing the recombinant protein were concentrated using Amicon concentrator (Millipore) to a final concentration of ca. 5 mg/ml as measured using Bradford assay. Concentrated proteins were stored in −80° C. degree after flash-freeze using liquid nitrogen. Mutant proteins were expressed, purified and stored following the same procedure. The molecular weight and oligomeric state of the protein was estimated based on the standard curve generated by using the standard proteins that include albumin, ovalbumin, chemotrypsinogen, RNase A. The final yield of the recombinant protein was 12-15 mg per liter culture for the wild type the mutant enzyme.
(SEC sorts molecules by how far they enter the pores of the column.)

B1: tDGC mutant R158A (enzyme)
chain: MGSSHHHHHHSSGLVPRGSHMKELEYMAYHDPLTGLPNRRYFFELGNRYLDLAKREGKKVFVLFVDLAGFKAINDTYGHLSGDEVLKTVSKRILDRVARSDVVARYGGDEFTILLYDMKEEYLKSLLERILSTFREPVRVENKHLSVTPNIGVARFPEDGENLEELLKVADMRMYKAKEMKVPYFSLS
notes: Expressed from pET28b(+) with a (His)6 tag; Found as a monomer in solution; also called R158A mutant; mutant tDGC
B1: the binding result was “no binding”.
